How the values were obtained:
[1] = molecular target: CaMV RT RNase H mutant D421N (cauliflower mosaic virus)
[2] = molecular target: CaMV RT (Cauliflower mosaic virus, UniProt A0A2D2PYL0 197-675); assay: gel filtration; 5 mM MgCl2; stable 1:1 complex; Gel filtration: 25 mM Hepes pH 7.5, 200 mM NaCl, 5% glycerol, 5 mM MgCl2, 1 mM DTT, 30 min on ice; crystals: protein in 20 mM Hepes pH 7.5, 200 mM NaCl, 5% glyc; settings: protein: recombinant; tags: none (N-terminal 6xHis-SUMO removed with Ulp1); 5' overhang 2 nt on RNA strand (GG), 22 bp

cauliflower mosaic virus (CaMV) reverse transcriptase, wild type (from UniProt P03554 1-679) (enzyme)
RNase H cleavage efficiency on R40/D28, 1:1:1 mixture of wt RT:mutant RT:substrate, 120 min (against ∼18% for 1:1 wt enzyme:substrate) [1]: 60%

B1: RNA-24/DNA-22 hybrid (DNA:RNA)
RNA: GGCAGUGGUCCAGCAGUGCGUAGC
DNA: GCTACGCACTGCTGGACCACTG
binding result [2]: binds
